Positions count from the first letter of the chain named.
Legend:
estrogen receptor (ER) α = target: T1, estrogen receptor (ER) α (Homo sapiens, UniProt P03372); assay: Yeast two-hybrid screening of LXXLL peptide library, ligand induced β-galactosidase activity (FIG. 1, Table 501); format: cell-based; settings: with and without estradiol
T1 construct: expressed in transfected cells; host or cells: Saccharomyces cerevisiae PJ69-α
T1 sequence (P03372 1-595): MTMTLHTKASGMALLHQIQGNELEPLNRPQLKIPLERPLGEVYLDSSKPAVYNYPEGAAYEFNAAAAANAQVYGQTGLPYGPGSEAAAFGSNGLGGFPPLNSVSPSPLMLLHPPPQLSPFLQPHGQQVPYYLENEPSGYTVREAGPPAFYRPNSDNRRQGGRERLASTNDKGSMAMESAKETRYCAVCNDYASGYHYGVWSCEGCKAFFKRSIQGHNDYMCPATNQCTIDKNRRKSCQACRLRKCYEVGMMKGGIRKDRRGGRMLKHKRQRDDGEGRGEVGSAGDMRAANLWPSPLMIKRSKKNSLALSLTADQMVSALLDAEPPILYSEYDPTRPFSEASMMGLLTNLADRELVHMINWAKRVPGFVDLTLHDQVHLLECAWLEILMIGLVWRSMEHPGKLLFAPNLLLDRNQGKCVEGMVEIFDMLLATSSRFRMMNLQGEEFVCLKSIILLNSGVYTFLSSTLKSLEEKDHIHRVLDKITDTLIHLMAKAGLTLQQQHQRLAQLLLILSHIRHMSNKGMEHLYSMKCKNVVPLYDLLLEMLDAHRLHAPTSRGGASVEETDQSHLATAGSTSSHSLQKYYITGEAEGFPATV
From the text: A directed peptide library (X5LXXLLX5, SEQ ID NO:264) containing the LXXLL motif (previously identified as common in peptides binding estrogen receptor) as a carboxy-terminal fusion to the Gal4 DNA binding domain was constructed with an overall complexity of […] independent peptides. The LXXLL motif library peptides were encoded by the degenerate DNA sequence (NNK)5TTA(NNK)2(TTA)2(NNK)5 (SEQ ID NO:265); TTA is the preferred Leu codon in yeast. NNK encodes a stop codon so a few of the peptides generated will be shorter than 15 a.a. The shortest interacting peptides will likely be 10-mers. This library was transformed into the Saccharomyces cerevisiae PJ69-α yeast strain expressing estrogen receptor (ER) α as a carboxy-terminal fusion to the Gal4 activation domain. […] Those colonies able to grow by inducing the integrated GAL4 driven HIS3 reporter were transferred into 0.25 ml of rich media in a 0.5 ml block.
Cells were pelleted by centrifugation, the media removed and the cells lysed with buffer containing 2.5% CHAPS (3-(3-Cholamidopropyl) dimethyl ammonio-1-propanesulfonate) detergent. A preliminary OD600 was determined to normalize β-galactosidase activity of each well with cell density. […] Yeast clones that generated a value equal to or greater than 0.5 were verified using the same method. Verified clones were then subjected to a final test of ligand induced β-galactosidase activity. […] Ten clones displaying the greatest ligand induced β-galactosidase activity were studied further.
Plasmids containing the peptides were isolated from the yeast cells and the amino acid sequences (Table 501) deduced by DNA sequencing of the library inserts. In Table 501, the underlined sequence is encoded by vector DNA, and the “*” represents the endogenous stop codon of the vector, and is downstream of the cloning site. Several peptides contain the vector-encoded LDLQPS (SEQ ID NO:266) sequence. B5H10 is believed to be the result of a double insert, with the second part being encoded by the complementary sequence. Peptides B1A1 and B1G8 were shorter than the other isolates because the clones encoding them carry a premature stop codon, which is inherent in the NNK library. Because of a frame shift, neither peptide B6A1 nor B3E2 contained the sequence encoded by vector DNA.

ERβ = ERβ (Homo sapiens, UniProt Q92731); assay: Phage ELISA fingerprint: peptide binding to immobilized ER β with modulator present (Table 14B)
Sequence of ERβ (Q92731 whole entry, species assumed, the tested form may be a part): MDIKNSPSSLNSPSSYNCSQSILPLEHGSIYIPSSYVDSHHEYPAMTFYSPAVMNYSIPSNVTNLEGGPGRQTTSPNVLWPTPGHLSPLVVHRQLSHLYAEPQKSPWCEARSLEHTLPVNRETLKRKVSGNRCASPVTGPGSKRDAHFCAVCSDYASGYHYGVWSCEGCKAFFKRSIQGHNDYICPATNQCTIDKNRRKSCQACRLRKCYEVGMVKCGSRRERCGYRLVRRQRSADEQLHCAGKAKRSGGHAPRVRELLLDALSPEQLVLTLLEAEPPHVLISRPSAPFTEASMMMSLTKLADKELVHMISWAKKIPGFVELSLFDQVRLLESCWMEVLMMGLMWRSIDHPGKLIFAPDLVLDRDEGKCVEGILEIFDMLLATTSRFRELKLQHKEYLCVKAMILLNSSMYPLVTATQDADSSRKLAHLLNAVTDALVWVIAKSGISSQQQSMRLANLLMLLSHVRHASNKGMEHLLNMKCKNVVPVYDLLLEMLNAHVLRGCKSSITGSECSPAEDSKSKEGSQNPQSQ

[1] = target: T2, estrogen receptor (ER) α as a carboxy-terminal fusion to the Gal4 activation domain (yeast, UniProt P03372 1-595, limits assumed); assay: cell-based or functional assay
T2 sequence (looked up): T1 sequence (P03372 1-595)

[2] = target: T3, Gal4 transcriptional activation domain (AD) fused in frame with AR (pGAD-C2) (yeast, UniProt P10275 1-920, limits assumed); assay: cell-based or functional assay
T3 sequence (looked up): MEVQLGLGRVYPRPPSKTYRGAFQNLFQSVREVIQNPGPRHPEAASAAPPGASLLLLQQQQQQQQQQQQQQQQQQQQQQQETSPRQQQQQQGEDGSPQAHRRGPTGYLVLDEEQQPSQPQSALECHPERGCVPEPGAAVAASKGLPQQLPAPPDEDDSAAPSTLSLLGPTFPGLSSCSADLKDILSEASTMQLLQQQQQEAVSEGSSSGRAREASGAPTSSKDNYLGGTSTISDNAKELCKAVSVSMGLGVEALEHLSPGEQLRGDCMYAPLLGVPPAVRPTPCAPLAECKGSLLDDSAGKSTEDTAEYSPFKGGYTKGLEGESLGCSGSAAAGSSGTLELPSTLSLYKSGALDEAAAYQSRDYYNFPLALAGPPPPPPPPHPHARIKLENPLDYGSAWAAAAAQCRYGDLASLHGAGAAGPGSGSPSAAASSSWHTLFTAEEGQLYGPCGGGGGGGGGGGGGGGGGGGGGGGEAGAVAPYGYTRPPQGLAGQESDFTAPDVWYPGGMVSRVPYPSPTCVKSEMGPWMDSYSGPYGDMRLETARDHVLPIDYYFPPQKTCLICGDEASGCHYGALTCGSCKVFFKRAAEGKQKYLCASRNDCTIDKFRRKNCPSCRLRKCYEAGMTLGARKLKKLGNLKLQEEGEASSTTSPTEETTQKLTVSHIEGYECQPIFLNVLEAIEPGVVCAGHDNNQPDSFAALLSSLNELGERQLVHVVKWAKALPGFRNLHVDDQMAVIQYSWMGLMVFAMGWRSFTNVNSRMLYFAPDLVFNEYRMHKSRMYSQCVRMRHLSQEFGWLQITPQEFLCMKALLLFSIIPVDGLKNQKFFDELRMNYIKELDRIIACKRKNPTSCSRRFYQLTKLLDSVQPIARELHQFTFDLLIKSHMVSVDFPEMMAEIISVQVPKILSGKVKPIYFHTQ

[3] = target: T3, Gal4 transcriptional activation domain …; assay: cell-based or functional assay; remark: listed apart in the source

In the case of EFCPVGLLVHLLMQ* [B1A1], the “Fold Induction (ligand induced β-galactosidase activity)” value (estrogen receptor (ER) α) is reported as 11.

EFFRATHLLRLLRTDSALDLQPS* [B6F3] was tested, and the “Fold Induction (ligand induced β-galactosidase activity)” value (estrogen receptor (ER) α) was 3.

With EFFRLRRLDRLLQDSFLLDLQPS* [B2G1] the “Fold Induction (ligand induced β-galactosidase activity)” value (estrogen receptor (ER) α) was 12.

With EFGCSAILRYLLRSPRDLDLQPS* [B5A2] the “Fold Induction (ligand induced β-galactosidase activity)” value (estrogen receptor (ER) α) was 2.5.

For EFGGSVLLRELLCCYDALEPTTTR [B3E2], the “Fold Induction (ligand induced β-galactosidase activity)” value (estrogen receptor (ER) α) was 3.

For EFSGVPILHMLLMLPSSLDLQOPS* [B4F6], the “Fold Induction (ligand induced β-galactosidase activity)” value (estrogen receptor (ER) α) was 5.

For “EFSPPSSLLALLLGGKSLEPLPIRYKNVKRQFTSNSRGSVDLQPS [B5H10]”, the “Fold Induction (ligand induced β-galactosidase activity)” value (estrogen receptor (ER) α) was 4.5.

In the case of EFTGSRLLLKLLRFPDSSTCSQA [B6A1], the “Fold Induction (ligand induced β-galactosidase activity)” value (estrogen receptor (ER) α) is reported as 3.5.

EFTSVSRLVTLLLQ* [B1G8] was tested, and the “Fold Induction (ligand induced β-galactosidase activity)” value (estrogen receptor (ER) α) was 6.

In the case of SSEACVGRWMLCEQLGVSR [12Bβ], the “Class Specific Fingerprint on ERβ: peptide binding, Nafoxidine present” value (ERβ; nafoxidine (10 μM)) is reported as 5.

For SSNHQSSRLIELLSR [#4 ER./E2], the “Class Specific Fingerprint on ERβ: peptide binding, 4-OH Tamoxifen present” value (ERβ; 4-OH tamoxifen (1 μM)) was 0, the “Class Specific Fingerprint on ERβ: peptide binding, ICI 182,780 present” value (ERβ; ICI 182,780 (1 μM)) was 0 and the “Class Specific Fingerprint on ERβ: peptide binding, Clomiphene present” value (ERβ; clomiphene (10 μM)) was 0. The “Class Specific Fingerprint on ERβ: peptide binding, Raloxifene present” value (ERβ; raloxifene (1 μM)) was 0.

B1: B6A1 (peptide)
chain: MKLLSSIEQACDICRLKKLKCSKEKPKCAKCLKNNWECRYSPKTKRSPLTRAHLTEVESRLERLEQLFLLIFPREDLDMILKMDSLQDIKALLTGLFVQDNVNKDAVTDRLASVETDMPLTLRQHRISATSSSEESSNKGQRQLTVSEFTGSRLLLKLLRFPDSSTCSQA
With B1 the “fold induction of β-galactosidase by estradiol, yeast two-hybrid” value (“fold induction of β-galactosidase” below) [1] was 3.5 fold.

B2: B3E2 (peptide)
chain: MKLLSSIEQACDICRLKKLKCSKEKPKCAKCLKNNWECRYSPKTKRSPLTRAHLTEVESRLERLEQLFLLIFPREDLDMILKMDSLQDIKALLTGLFVQDNVNKDAVTDRLASVETDMPLTLRQHRISATSSSEESSNKGQRQLTVSEFGGSVLLRELLCCYDALEPTTTR
B2 was tested, and the “fold induction of β-galactosidase” value [1] was 3 fold.

B3: B5H10 (peptide)
chain: MKLLSSIEQACDICRLKKLKCSKEKPKCAKCLKNNWECRYSPKTKRSPLTRAHLTEVESRLERLEQLFLLIFPREDLDMILKMDSLQDIKALLTGLFVQDNVNKDAVTDRLASVETDMPLTLRQHRISATSSSEESSNKGQRQLTVSEFSPPSSLLALLLGGKSLEPLPIRYKNVKRQFTSNSRGSVDLQPS
For B3, the “fold induction of β-galactosidase” value [1] was 4.5 fold.

B4: B6F3 (peptide)
chain: MKLLSSIEQACDICRLKKLKCSKEKPKCAKCLKNNWECRYSPKTKRSPLTRAHLTEVESRLERLEQLFLLIFPREDLDMILKMDSLQDIKALLTGLFVQDNVNKDAVTDRLASVETDMPLTLRQHRISATSSSEESSNKGQRQLTVSEFFRATHLLRLLRTDSALDLQPS
For B4, the “fold induction of β-galactosidase” value [1] was 3 fold.

B5: B6C4 (peptide)
chain: MKLLSSIEQACDICRLKKLKCSKEKPKCAKCLKNNWECRYSPKTKRSPLTRAHLTEVESRLERLEQLFLLIFPREDLDMILKMDSLQDIKALLTGLFVQDNVNKDAVTDRLASVETDMPLTLRQHRISATSSSEESSNKGQRQLTVSEFDRSSILVSLLSMVETLDLQPS
In the case of B5, the “fold induction of β-galactosidase” value [1] is reported as at least 2 fold.

B6: B4F6 (peptide)
chain: MKLLSSIEQACDICRLKKLKCSKEKPKCAKCLKNNWECRYSPKTKRSPLTRAHLTEVESRLERLEQLFLLIFPREDLDMILKMDSLQDIKALLTGLFVQDNVNKDAVTDRLASVETDMPLTLRQHRISATSSSEESSNKGQRQLTVSEFSGVPILHMLLMLPSSLDLQPS
For B6, the “fold induction of β-galactosidase” value [1] was 5 fold.

B7: B2G1 (peptide)
chain: B4 chain with A152L, T153R, H154R, L156D, R160Q, T161D, D162S, S163F, A164L
B7 was tested, and the “fold induction of β-galactosidase” value [1] was 12 fold.

B8: B5A2 (peptide)
chain: B5 chain with D150G, R151C, S153A, V156R, S157Y, S160R, M161S, V162P, E163R, T164D
With B8 the “fold induction of β-galactosidase” value [1] was 2.5 fold.

B9: B1A1 (peptide)
chain: MKLLSSIEQACDICRLKKLKCSKEKPKCAKCLKNNWECRYSPKTKRSPLTRAHLTEVESRLERLEQLFLLIFPREDLDMILKMDSLQDIKALLTGLFVQDNVNKDAVTDRLASVETDMPLTLRQHRISATSSSEESSNKGQRQLTVSEFCPVGLLVHLLMQ
For B9, the “fold induction of β-galactosidase” value [1] was 11 fold.

B10: B1G8 (peptide)
chain: B9 chain with C150T, P151S, G153S, L154R, H157T, M160L
In the case of B10, the “fold induction of β-galactosidase” value [1] is reported as 6 fold.

B11: B8A10 (peptide)
chain: MKLLSSIEQACDICRLKKLKCSKEKPKCAKCLKNNWECRYSPKTKRSPLTRAHLTEVESRLERLEQLFLLIFPREDLDMILKMDSLQDIKALLTGLFVQDNVNKDAVTDRLASVETDMPLTLRQHRISATSSSEESSNKGQRQLTVSEFVNWDAVVPWSELVALLDLQPS
With B11 the “Fold induction, yeast two-hybrid” value [2] was 1 fold, the “β-galactosidase activity, yeast two-hybrid; CPA” value [3] was 0.395 and the “β-galactosidase activity, yeast two-hybrid; DHT” value [3] was 0.616. The “β-galactosidase activity, yeast two-hybrid; No Lig” value [3] was 0.875 and the “β-galactosidase activity, yeast two-hybrid; RU” value [3] was 0.4.

B12: B2A7 (peptide)
chain: MKLLSSIEQACDICRLKKLKCSKEKPKCAKCLKNNWECRYSPKTKRSPLTRAHLTEVESRLERLEQLFLLIFPREDLDMILKMDSLQDIKALLTGLFVQDNVNKDAVTDRLASVETDMPLTLRQHRISATSSSEESSNKGQRQLTVSEFPELLAMTRWGRHAALLEPQRLPPPRTTTQPQTEFERMFFFTRPMRTTGLLDLQPS
For B12, the “Fold induction, yeast two-hybrid” value [2] was 5 fold, the “β-galactosidase activity, yeast two-hybrid; CPA” value [3] was 0.292 and the “β-galactosidase activity, yeast two-hybrid; DHT” value [3] was 1.72. The “β-galactosidase activity, yeast two-hybrid; No Lig” value [3] was 0.371 and the “β-galactosidase activity, yeast two-hybrid; RU” value [3] was 0.5.

From patent US20030224390A1, “Method of identifying conformation-sensitive binding peptides and uses thereof” (Karo Bio AB, priority 2000, published 2003)
